Experimental data: patent publication US9394555B2, “Compositions comprising a polypeptide having cellulolytic enhancing activity and a dioxy compound and uses thereof” (priority 2010, dated 2016)

How the values were obtained:
Assay type in all cases: biochemical
[1] = biological target: T1, T. aurantiacus GH61A polypeptide (Thermoascus aurantiacus, UniProt G3XAP7, N13Y); assay: Phosphoric acid swollen cellulose (PASC) conversion assay (Examples 20, 21); details: A. oryzae CEL3A beta-glucosidase (20 mg protein per g cellulose) only; 72 hours, 50° C.
T1 sequence (G3XAP7 whole entry N13Y): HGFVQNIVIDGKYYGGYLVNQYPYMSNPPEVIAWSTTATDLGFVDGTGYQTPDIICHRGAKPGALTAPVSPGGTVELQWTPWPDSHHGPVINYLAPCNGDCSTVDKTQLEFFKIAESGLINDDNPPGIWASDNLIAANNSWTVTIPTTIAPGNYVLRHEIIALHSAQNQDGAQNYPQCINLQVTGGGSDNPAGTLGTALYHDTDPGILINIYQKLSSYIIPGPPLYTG
Protocol: A 1.0% PASC slurry was prepared as described in Example 17. Ten ml of the 1.0% PASC slurry, 10 ml of H2O, and […] of dioxy compound were thoroughly mixed by shaking,
Five hundred μl aliquots of the 0.50% phosphoric acid swollen cellulose/0.05% dioxy compound slurry were pipetted into wells of a 2.0 ml 96-deepwell plate (Axygen, Union City, Calif., USA) using a 1000 μl micropipette with a wide aperture tip (end of tip cut off about 2 mm from the base). One hundred μl of 10 mM MnSO4-500 mM sodium acetate pH 5 were then added to each well. Two hundred μl of deionized water were added to each well. Enzyme mixtures were prepared and then added simultaneously to all wells in a volume of 200 μl, for a total of 1 ml in each reaction. […] All experiments reported were performed in triplicate.
(§1) Primary analysis of the hydrolysis reactions was performed using an AGILENT® 1100 HPLC with CHEMSTATION® software equipped with an AMINEX™ HPX-87H column. After approximately 4 days, the deep-well plate was removed from the incubator and chilled overnight to 4° C. The plate was then mixed well by inversion and briefly centrifuged 52×g in a SORVALL® RT7 centrifuge for 10 seconds. Samples were then mixed by pipetting, and 200 μl from each well were transferred to a MULTISCREEN® HV centrifuge filter plate assembly. The centrifuge filter plate assembly was centrifuged at 2000 rpm in a SORVALL® RT7 centrifuge for 20 minutes. […] Sugars were detected using a refractive index detector with quantification by integration compared to purified sugar standards.
(§2) All HPLC data processing was performed using MICROSOFT EXCEL™ software. […] In this assay only glucose was measured since beta-glucosidase was at high levels in all samples but the controls. Percent conversion was calculated using Equation 1. Triplicate data points were averaged and standard deviation was calculated.
The PASC assay was performed as described in Example 20.
Data were collected and analyzed, as described in Example 20, after 72 hours of incubation at 50° C.

[2] = biological target: T1, T. aurantiacus GH61A polypeptide; assay: Phosphoric acid swollen cellulose (PASC) hydrolysis assay (Examples 18, 19); details: A. oryzae CEL3A beta-glucosidase (20 mg protein per g cellulose) only; 72 hours, 50° C.
Protocol: A 1% phosphoric acid swollen cellulose (PASC) slurry was prepared from AVICEL® PH101 using the protocol described by Zhang et al., 2006, Biomacromolecules 7: 644-648.
The 1.0% PASC slurry prepared as described in Example 17 was thoroughly resuspended by shaking, and quickly transferred to a 100 ml beaker and stirred rapidly with a magnetic stirrer. Five hundred μl aliquots of the 1.0% PASC slurry were pipetted into wells of a 2.0 ml 96-deepwell plate (Axygen, Union City, Calif., USA) using a 1000 μl micropipette with a wide aperture tip (end of tip cut off about 2 mm from the base). One hundred μl of 10 mM MnSO4-500 mM sodium acetate pH 5 were then added to each well. […]
Primary analysis of the hydrolysis reactions was performed using an AGILENT® 1100 HPLC with CHEMSTATION® software equipped with an AMINEX™ HPX-87H column. […] Sugars were detected using a refractive index detector with quantification by integration compared to purified sugar standards.
as §2, with “calculated. […]” for “calculated.”
Data were collected and analyzed, as described in Example 18, after 72 hours of incubation at 50° C.

[3] = biological target: T1, T. aurantiacus GH61A polypeptide; assay: Bacterial cellulose conversion assay (Examples 15, 16); details: A. oryzae CEL3A beta-glucosidase (50 mg protein per g cellulose) only; 72 hours, 50° C.
Protocol: Bacterial cellulose was prepared from NATA DE COCO (Huerto International Trading, Lucena City, Philippines) by extensive rinsing of one 500 ml can of cubes with water followed by homogenation for 15 minutes in 0.25 M sodium hydroxide using a WARING BLENDER® (Waring Products, Torrington, Conn., USA). The resulting slurry was pelleted at 40,000×g in a SORVALL® RT7 centrifuge. The supernatant was discarded. The pellet was then resuspended in 0.25 M sodium hydroxide and stirred overnight at 4° C. This procedure was repeated four times. Following the first washing steps, the cellulose was washed six times under similar conditions, substituting water for 0.25 M sodium hydroxide. Following the water washing, the cellulose was again homogenized for 15 minutes in a WARING BLENDER®, and adjusted to a final volume of 250 ml.
A 0.36% bacterial cellulose slurry was prepared as described in Example 14. This 0.36% slurry was thoroughly resuspended by shaking, and quickly transferred to a 100 ml beaker and stirred rapidly with a magnetic stirrer. Seven hundred μl aliquots of the bacterial cellulose slurry were pipetted into wells of a 2.0 ml 96-deepwell plate (Axygen, Union City, Calif.) using a 1000 μl micropipette with a wide aperture tip (end of tip cut off about 2 mm from the base). One hundred μl of 10 mM MnSO4-500 mM sodium acetate pH 5 was then added to each well. One hundred μl of either deionized water, a 1% gallic acid solution dissolved in water, or a 1% gallic acid solution containing 50 mM EDTA were added to each well. Enzyme mixtures were prepared and then added simultaneously to all wells in a volume of 100 μl, for a total of 1 ml in each reaction. […] All experiments reported were performed in triplicate.
as §1
as §2, with “conversion was determined using Equation” for “conversion was calculated using Equation”
The bacterial cellulose hydrolysis assay was performed as described in Example 15.
Data was collected and analyzed, as described in Example 15, after 72 hours of incubation at 50° C.

B1: A. oryzae CEL3A beta-glucosidase: CEL3A beta-glucosidase (SEQ ID NO: 112), recombinantly prepared as described in WO 2004/099228 (protein, listed as Aspergillus oryzae)
chain: MKLGWIEVAALAAASVVSAKDDLAYSPPFYPSPWADGQGEWAEVYKRAVDIVSQMTLTEKVNLTTGTGWQLERCVGQTGSVPRLNIPSLCLQDSPLGIRFSDYNSAFPAGVNVAATWDKTLAYLRGQAMGEEFSDKGIDVQLGPAAGPLGAHPDGGRNWEGFSPDPALTGVLFAETIKGIQDAGVIATAKHYIMNEQEHFRQQPEAAGYGFNVSDSLSSNVDDKTMHELYLWPFADAVRAGVGAVMCSYNQINNSYGCENSETLNKLLKAELGFQGFVMSDWTAHHSGVGAALAGLDMSMPGDVTFDSGTSFWGANLTVGVLNGTIPQWRVDDMAVRIMAAYYKVGRDTKYTPPNFSSWTRDEYGFAHNHVSEGAYERVNEFVDVQRDHADLIRRIGAQSTVLLKNKGALPLSRKEKLVALLGEDAGSNSWGANGCDDRGCDNGTLAMAWGSGTANFPYLVTPEQAIQNEVLQGRGNVFAVTDSWALDKIAAAARQASVSLVFVNSDSGEGYLSVDGNEGDRNNITLWKNGDNVVKTAANNCNNTVVIIHSVGPVLIDEWYDHPNVTGILWAGLPGQESGNSIADVLYGRVNPGAKSPFTWGKTRESYGSPLVKDANNGNGAPQSDFTQGVFIDYRHFDKFNETPIYEFGYGLSYTTFELSDLHVQPLNASRYTPTSGMTEAAKNFGEIGDASEYVYPEGLERIHEFIYPWINSTDLKASSDDSNYGWEDSKYIPEGATDGSAQPRLPASGGAGGNPGLYEDLFRVSVKVKNTGNVAGDEVPQLYVSLGGPNEPKVVLRKFERIHLAPSQEAVWTTTLTRRDLANWDVSAQDWTVTPYPKTIYVGNSSRKLPLQASLPKAQ
[1]
  conversion of the phosphoric acid swollen cellulose: 2.0±0.1%
[2]
  conversion of PASC: 2.4±0.5%
[3]
  conversion of the bacterial cellulose: 2.4±2.9%
